Reference: US20030219853

What was measured:
[1] = target: bovine serum albumin (BSA) (UniProt P02769)
[2] = target: T1, β-casein (UniProt P02666)
T1 sequence: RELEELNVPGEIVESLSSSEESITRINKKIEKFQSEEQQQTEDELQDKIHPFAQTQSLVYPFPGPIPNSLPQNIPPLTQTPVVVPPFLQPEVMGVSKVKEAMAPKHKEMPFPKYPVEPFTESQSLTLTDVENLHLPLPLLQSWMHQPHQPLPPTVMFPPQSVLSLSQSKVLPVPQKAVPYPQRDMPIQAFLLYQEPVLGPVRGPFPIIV

[3] = tested on: BSA5 peptide
[4] = tested on: histone H3 protein
[5] = target: ovalbumin (UniProt P01012)
[6] = target: recombinant serum albumin (UniProt P02768)

ovalbumin, sequence (P01012 2-386): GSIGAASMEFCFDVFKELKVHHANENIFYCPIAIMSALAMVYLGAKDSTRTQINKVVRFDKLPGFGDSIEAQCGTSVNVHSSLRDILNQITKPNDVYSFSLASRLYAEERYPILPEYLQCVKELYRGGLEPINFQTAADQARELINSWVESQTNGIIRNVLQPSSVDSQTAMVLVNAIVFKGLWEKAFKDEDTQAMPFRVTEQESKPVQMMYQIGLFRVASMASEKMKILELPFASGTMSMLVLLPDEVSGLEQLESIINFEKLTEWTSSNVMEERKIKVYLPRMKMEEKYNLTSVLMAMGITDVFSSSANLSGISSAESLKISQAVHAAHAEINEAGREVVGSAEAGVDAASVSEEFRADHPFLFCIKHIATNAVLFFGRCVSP
bovine serum albumin (BSA), sequence (P02769 25-607): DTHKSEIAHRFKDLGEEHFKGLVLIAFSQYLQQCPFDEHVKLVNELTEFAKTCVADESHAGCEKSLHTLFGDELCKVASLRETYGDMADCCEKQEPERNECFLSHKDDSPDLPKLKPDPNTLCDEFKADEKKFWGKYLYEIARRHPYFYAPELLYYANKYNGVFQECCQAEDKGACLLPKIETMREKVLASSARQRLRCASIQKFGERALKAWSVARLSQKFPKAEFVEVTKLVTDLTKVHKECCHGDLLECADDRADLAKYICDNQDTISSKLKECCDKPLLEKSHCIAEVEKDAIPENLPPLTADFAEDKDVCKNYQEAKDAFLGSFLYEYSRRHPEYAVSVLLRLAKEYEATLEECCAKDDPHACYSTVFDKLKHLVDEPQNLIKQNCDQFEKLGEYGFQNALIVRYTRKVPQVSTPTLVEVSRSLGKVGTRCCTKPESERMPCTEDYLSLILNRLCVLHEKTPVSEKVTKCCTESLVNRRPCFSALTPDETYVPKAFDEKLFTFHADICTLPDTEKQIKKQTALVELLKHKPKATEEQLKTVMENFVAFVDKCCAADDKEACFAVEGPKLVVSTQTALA

B1: recombinant 6x-His-TGase fusion protein of Streptomyces mobaraensis ATCC 29032 (enzyme, UniProt P81453 77-407, looked up)
Protein-glutamine gamma-glutamyltransferase: DSDDRVTPPAEPLDRMPDPYRPSYGRAETVVNNYIRKWQQVYSHRDGRKQQMTEEQREWLSYGCVGVTWVNSGQYPTNRLAFASFDEDRFKNELKNGRPRSGETRAEFEGRVAKESFDEEKGFQRAREVASVMNRALENAHDESAYLDNLKKELANGNDALRNEDARSPFYSALRNTPSFKERNGGNHDPSRMKAVIYSKHFWSGQDRSSSADKRKYGDPDAFRPAPGTGLVDMSRDRNIPRSPTSPGEGFVNFDYGWFGAQTEADADKTVWTHGNHYHAPNGSLGAMHVYESKFRNWSEGYSDFDRGAYVITFIPKSWNTAPDKVKQGWP
modifications: N-terminal 6xHis tag
B1 was tested. Which “cross-linking on SDS-PAGE, native and modified (denatured, dialyzed) protein” value (from here on “cross-linking on SDS-PAGE”) [1] did it give?
The value was “only the reactions containing the modified protein species of BSA, histine H3 protein, glucose oxidase, and ovalbumin were cross-linked by the purified recombinant SM TGase”.

And the “cross-linking of a mixture of β-casein and glucose oxidase on SDS-PAGE” value [2]?
The value was “both protein species can be cross-linked by the purified recombinant SM TGase, as indicated by the disappearance of the two monomer bands”.

What about the “cross-linking of β-casein on SDS-PAGE” value [2] of the same protein?
Its value is “the cross-linked (CL) β-casein migrated as a smear on the SDS-PAGE gel indicating a mixture of high molecular weight polymers of different length”.

And the “cross-linking of β-casein on SDS-PAGE, 0 mM DTT” value [2]?
The value was “in the absence of DTT (lane 1 and 2), the recombinant SM TGase had no cross-linking activity on β-casein and β-casein runs as a monomer”.

What about the “cross-linking of β-casein on SDS-PAGE, about 2 mM DTT” value [2] of the same protein?
Its value is “the recombinant SM TGase was activated and β-casein run as a mixture of cross-linked polymer and monomer”.

And the “cross-linking of β-casein on SDS-PAGE, about 10 mM DTT” value [2]?
Its value is “the catalytic cross-linking activity of SM TGase resulted in cross-linking of all detectable β-casein substrates in the reaction”.

And the “cross-linking of BSA5 peptide on SDS-PAGE” value [3]?
Its value is “increased amount of recombinant SM TGase corresponding to an increase in cross-linked (CL) BSA5 peptide, which run as a large molecular weight polymer on the top of the separating gel”.

What about the “cross-linking on SDS-PAGE” value [4] of the same protein?
Its value is “only the reactions containing the modified protein species of BSA, histine H3 protein, glucose oxidase, and ovalbumin were cross-linked by the purified recombinant SM TGase; complete and partial cross-linking was both observed for native histine H3 protein”.

And the “cross-linking on SDS-PAGE” value [5]?
Its value is “only the reactions containing the modified protein species of BSA, histine H3 protein, glucose oxidase, and ovalbumin were cross-linked by the purified recombinant SM TGase”.

What about the “cross-linking of recombinant serum albumin on SDS-PAGE” value [6] of the same protein?
Its value is “the cross-linking reaction containing recombinant serum albumin revealed a mixture of very high molecular weight polymers of different length”.
